Target: T1, Human LAG3_(23–434) (human, UniProt P18627 23-434, fluorescently labelled (fluorophore and site not named))
T1 construct: Used only in the microfluidic diffusional sizing; also called labelled LAG3; source: bought: BonOpusBio (#CJ91)
T1 sequence (looked up): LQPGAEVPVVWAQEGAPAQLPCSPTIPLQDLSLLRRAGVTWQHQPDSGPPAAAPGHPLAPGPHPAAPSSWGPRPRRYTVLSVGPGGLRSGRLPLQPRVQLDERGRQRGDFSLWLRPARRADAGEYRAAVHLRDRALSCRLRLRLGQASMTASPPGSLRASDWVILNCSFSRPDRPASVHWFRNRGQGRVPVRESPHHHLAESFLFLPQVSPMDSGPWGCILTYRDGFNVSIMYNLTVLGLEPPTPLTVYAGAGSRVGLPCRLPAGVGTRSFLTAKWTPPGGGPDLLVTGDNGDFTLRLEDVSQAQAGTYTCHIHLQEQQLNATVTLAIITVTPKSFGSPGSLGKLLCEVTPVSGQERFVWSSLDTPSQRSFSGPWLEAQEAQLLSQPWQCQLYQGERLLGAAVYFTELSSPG
Assay: microfluidic diffusional sizing; fluorescently labelled protein (10 nM-10 µM) in solution, unlabelled ligand varied; PBS with 0.01% Tween-20; 60 min at room temperature; hydrodynamic radius read out; KD from Langmuir binding isotherm
Details: both partners purified

B1: FGL1 Protein, Human, Recombinant (ligand, UniProt Q08830 23-312, looked up)
chain: LEDCAQEQMRLRAQVRLLETRVKQQQVKIKQLLQENEVQFLDKGDENTVIDLGSKRQYADCSEIFNDGYKLSGFYKIKPLQSPAEFSVYCDMSDGGGWTVIQRRSDGSENFNRGWKDYENGFGNFVQKHGEYWLGNKNLHFLTTQEDYTLKIDLADFEKNSRYAQYKNFKVGDEKNFYELNIGEYSGTAGDSLAGNFHPEVQWWASHQRMKFSTWDRDHDNYEGNCAEEDQSGWWFNRCHSANLNGVYYSGPYTAKTDNGIVWYTWHGWWYSLKSVVMKIRPNDFIPNVI
notes: Fibrinogen-like protein 1, human, recombinant; source: bought: Sino Biological (13484‐H08B)
Kd: 232 ± 79 nM

Source: article PMC8422075 (EMBO Molecular Medicine, 2021)
